# Source: the Human Domainome abundance scans (Beltran et al. 2025)
# ± gives the uncertainty stated by the source.
# B1: 1-phosphatidylinositol 4,5-bisphosphate phosphodiesterase gamma-2, residues 772 to 827; numbered along this chain, P16885 (parent)
# chain: RTVKALYDYKAKRSDELSFCRGALIHNVSKEPGGWWKGDYGTRIQQYFPSNYVEDI
# Variants of: B1
# Assay: abundance fitness (aPCA) (normalised: wild type 0, dead -1); higher = more abundant; growth selection in yeast, the domain comes from the species named
# Conditions: Homo sapiens
row,Variant,abundance fitness
1,RTVKALYDYKAKRSDELSFCRGALIHNVSKEPGGWWKGEYGTRIQQYFPSNYVEDI [D39E],-0.798 ± 0.17
2,RTVKALYDYKAKRSDELSFCRGALIHNVSKEPGGWWKGVYGTRIQQYFPSNYVEDI [D39V],-0.882 ± 0.18
3,RTVKALYDYKAKRSDELSFCRGALIHNVSKEPGGWWKGFYGTRIQQYFPSNYVEDI [D39F],-0.486 ± 0.49
4,RTVKALYDYKAKRSDELSFCRGALIHNVSKEPGGWWKGMYGTRIQQYFPSNYVEDI [D39M],-0.924 ± 0.36
5,RTVKALYDYKAKRSDELSFCRGALIHNVSKEPGGWWKGKYGTRIQQYFPSNYVEDI [D39K],-0.74 ± 0.5
6,RTVKALYDYKAKRSDELSFCRGALIHNVSKEPGGWWKGYYGTRIQQYFPSNYVEDI [D39Y],-0.31 ± 0.46
7,RTVKALYDYKAKRSDELSFCRGALIHNVSKEPGGWWKGPYGTRIQQYFPSNYVEDI [D39P],-0.851 ± 0.33
8,RTVKALYDYKAKRSDELSFCRGALIHNVSKEPGGWWKGSYGTRIQQYFPSNYVEDI [D39S],-0.825 ± 0.077
9,RTVKALYDYKAKRSDELSFCRGALIHNVSKEPGGWWKGTYGTRIQQYFPSNYVEDI [D39T],-0.418 ± 0.21
10,RTVKALYDYKAKRSDELSFCRGALIHNVSKEPGGWWKGAYGTRIQQYFPSNYVEDI [D39A],-1.01 ± 0.14
11,RTVKALYDYKAKRSDELSFCRGALIHNVSKEPGGWWKGRYGTRIQQYFPSNYVEDI [D39R],-1.01 ± 0.084
12,RTVKALYDYKAKRSDELSFCRGALIHNVSKEPGGWWKGWYGTRIQQYFPSNYVEDI [D39W],-0.82 ± 0.2
13,RTVKALYDYKAKRSDELSFCRGALIHNVSKEPGGWWKGGYGTRIQQYFPSNYVEDI [D39G],-0.864 ± 0.13
14,RTVKALYDYKAKRSDELSFCRGALIHNVSKEPGGWWKGDYGQRIQQYFPSNYVEDI [T42Q],-0.262 ± 0.21
15,RTVKALYDYKAKRSDELSFCRGALIHNVSKEPGGWWKGDYGWRIQQYFPSNYVEDI [T42W],-0.186 ± 0.045
16,RTVKALYDYKAKRSDELSFCRGALIHNVSKEPGGWWKGDYGFRIQQYFPSNYVEDI [T42F],-0.152 ± 0.043
17,RTVKALYDYKAKRSDELSFCRGALIHNVSKEPGGWWKGDYGLRIQQYFPSNYVEDI [T42L],-0.155 ± 0.079
18,RTVKALYDYKAKRSDELSFCRGALIHNVSKEPGGWWKGDYGNRIQQYFPSNYVEDI [T42N],0.139 ± 0.13
19,RTVKALYDYKAKRSDELSFCRGALIHNVSKEPGGWWKGDYGPRIQQYFPSNYVEDI [T42P],0.147 ± 0.13
20,RTVKALYDYKAKRSDELSFCRGALIHNVSKEPGGWWKGDYGYRIQQYFPSNYVEDI [T42Y],-0.385 ± 0.27
21,RTVKALYDYKAKRSDELSFCRGALIHNVSKEPGGWWKGDYGMRIQQYFPSNYVEDI [T42M],-0.01 ± 0.086
22,RTVKALYDYKAKRSDELSFCRGALIHNVSKEPGGWWKGDYGCRIQQYFPSNYVEDI [T42C],-0.227 ± 0.17
23,RTVKALYDYKAKRSDELSFCRGALIHNVSKEPGGWWKGDYGERIQQYFPSNYVEDI [T42E],0.168 ± 0.081
24,RTVKALYDYKAKRSDELSFCRGALIHNVSKEPGGWWKGDYGIRIQQYFPSNYVEDI [T42I],-0.021 ± 0.074

row,Variant,abundance fitness
1,RTVKALYDYKAKRSDELSFCRGALIHNVSKEPGGWWKGDYGVRIQQYFPSNYVEDI [T42V],-0.165 ± 0.065
2,RTVKALYDYKAKRSDELSFCRGALIHNVSKEPGGWWKGDYGDRIQQYFPSNYVEDI [T42D],0.076 ± 0.068
3,RTVKALYDYKAKRSDELSFCRGALIHNVSKEPGGWWKGDYGRRIQQYFPSNYVEDI [T42R],0.03 ± 0.063
4,RTVKALYDYKAKRSDELSFCRGALIHNVSKEPGGWWKGDYGGRIQQYFPSNYVEDI [T42G],0.078 ± 0.052
5,RTVKALYDYKAKRSDELSFCRGALIHNVSKEPGGWWKGDYGKRIQQYFPSNYVEDI [T42K],-0.243 ± 0.13
6,RTVKALYDYKAKRSDELSFCRGALIHNVSKEPGGWWKGDYGSRIQQYFPSNYVEDI [T42S],0.054 ± 0.086
7,RTVKALYDYKAKRSDELSFCRGALIHNVSKEPGGWWKGDYGARIQQYFPSNYVEDI [T42A],-0.065 ± 0.06
8,RTVKALYDYKAKRSDELSFCRGALIHNVSKEPGGWWKGDYRTRIQQYFPSNYVEDI [G41R],-0.234 ± 0.044
9,RTVKALYDYKAKRSDELSFCRGALIHNVSKEPGGWWKGDYCTRIQQYFPSNYVEDI [G41C],-0.581 ± 0.21
10,RTVKALYDYKAKRSDELSFCRGALIHNVSKEPGGWWKGDYMTRIQQYFPSNYVEDI [G41M],-0.268 ± 0.12
11,RTVKALYDYKAKRSDELSFCRGALIHNVSKEPGGWWKGDYITRIQQYFPSNYVEDI [G41I],-0.566 ± 0.37
12,RTVKALYDYKAKRSDELSFCRGALIHNVSKEPGGWWKGDYHTRIQQYFPSNYVEDI [G41H],-0.151 ± 0.38
13,RTVKALYDYKAKRSDELSFCRGALIHNVSKEPGGWWKGDYSTRIQQYFPSNYVEDI [G41S],-0.627 ± 0.14
14,RTVKALYDYKAKRSDELSFCRGALIHNVSKEPGGWWKGDYETRIQQYFPSNYVEDI [G41E],-0.117 ± 0.068
15,RTVKALYDYKAKRSDELSFCRGALIHNVSKEPGGWWKGDYQTRIQQYFPSNYVEDI [G41Q],-0.217 ± 0.1
16,RTVKALYDYKAKRSDELSFCRGALIHNVSKEPGGWWKGDYVTRIQQYFPSNYVEDI [G41V],-0.889 ± 0.078
17,RTVKALYDYKAKRSDELSFCRGALIHNVSKEPGGWWKGDYKTRIQQYFPSNYVEDI [G41K],-0.012 ± 0.08
18,RTVKALYDYKAKRSDELSFCRGALIHNVSKEPGGWWKGDYATRIQQYFPSNYVEDI [G41A],-0.273 ± 0.061
19,RTVKALYDYKAKRSDELSFCRGALIHNVSKEPGGWWKGDYPTRIQQYFPSNYVEDI [G41P],-1.01 ± 0.13
20,RTVKALYDYKAKRSDELSFCRGALIHNVSKEPGGWWKGDYFTRIQQYFPSNYVEDI [G41F],-0.54 ± 0.23
21,RTVKALYDYKAKRSDELSFCRGALIHNVSKEPGGWWKGDYDTRIQQYFPSNYVEDI [G41D],0.069 ± 0.077
22,RTVKALYDYKAKRSDELSFCRGALIHNVSKEPGGWWKGDYYTRIQQYFPSNYVEDI [G41Y],-0.557 ± 0.35
23,RTVKALYDYKAKRSDELSFCRGALIHNVSKEPGGWWKGDYTTRIQQYFPSNYVEDI [G41T],-0.699 ± 0.17
